The record followed here is PMC9876794 (2022).

Assay [1] has as its target T1, SARS-CoV-2 spike RBD (WT) (Severe acute respiratory syndrome …, UniProt P0DTC2). In words: ELISA. The arrangement: unit not given here.
Assay [2] deals with T1, SARS-CoV-2 spike RBD (WT). As to the kind of experiment: BLI.

B1: D124 (antibody, V domains shown)
VH: QVQLQQWGAGLLKPSETLSLTCAVYGGPFTGYSWTWIRQSPGKGLEWIGEINHSGSTSYNPSLQSRVTFSIDTSKNQFSLELSSVTAADTAVYFCARGNRNRYHTSDWYYYGMDVWGQGTTVTVSS
VL: DIQMTQSPSSLSAYVGDRVTITCRASQGINTYLAWYQQKPGKVPRLLIYGASTLQSGVPSRFSGSGSGTEFTLTISSLQPEDIATYYCQKYNSAPRTFGQGTKVEIK
Consider B1, for which the binding score in assay [1] came out at 2540. The molecule also had a Kd in assay [2] of 219 nM.

B2: D101 (antibody, V domains shown)
VH: EVQLVESGGGLVQPGGSLRLSCAASGFTFSNYDMHWVRQATGKGLEWVSTIGTVGDTYYPGSVKGRFTISRENAKNSLYLQMNSLRAGDTAVYYCARGGGMTTVTLDVWGQGTTVTVSS
VL: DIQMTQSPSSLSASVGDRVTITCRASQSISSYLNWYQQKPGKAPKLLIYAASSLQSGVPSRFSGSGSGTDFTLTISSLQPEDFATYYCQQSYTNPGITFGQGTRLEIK
As to B2, the binding score in assay [1] was determined as 8.93. The molecule further gave a Kd in assay [2] of 46.9 nM.

B3: D125 (antibody, V domains shown)
VH: QVQLQESGPGLVKPSETLSLTCSVSGVSISSYYWSWIRQPPGKGLEWIGYIYYSGSTNYNPSLKSRVTISVDTSKNQFSLKLSSVTAADTAVYYCARVVGDGYNFGYYYYMDVWGKGTTVTVSS
VL: QSVLTQPPSVSAAPGQKVTISCSGSSSNIGNNYVSWYQQLPGTAPKLLIYENNKRPSGIPDRFSGSKSGTSATLGITGLQTGDEADYYCGTWDSSLSAYVFGTGTKVTVL
B3 returned a binding score in assay [1] of 575. Also, in assay [2], the Kd is 103 nM.

B4: C2716 (antibody, V domains shown)
VH: EVQLVESGGGLIQPGGSLRLSCAASGFIVSSNYMSWVRQAPGKGLEWVSVIYSGGSTYYADSVKGRFTISRDNSKNTLYLQMNSLRAEDTAVYYCARDLGSYGHFDYWGQGTLVTVSS
VL: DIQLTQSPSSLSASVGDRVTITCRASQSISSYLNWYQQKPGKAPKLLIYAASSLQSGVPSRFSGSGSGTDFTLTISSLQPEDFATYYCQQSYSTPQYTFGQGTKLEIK
In assay [1], B4 registered a binding score of 1100. This molecule returned a Kd in assay [2] of 370 nM.

B5: C2690 (antibody, V domains shown)
VH: EVQLVESGGGVVQPGRSLRVSCAASGFTFSSYGMHWVRQAPGKGLEWVAVISYDGSNKYYADSVKGRFSISRDNSKNTLYLQMNSLRAEDTAVYYCAKVISSFGGGSLNYFDYWGQGTLVTVSS
VL: AIRMTQSPSSLSASVGDRVTITCQASQDISNYLNWYQQKPGKAPKLLIYDASNLETGVPSRFSGSGSGTDFTFTISSLQPEDIATYYCQQYDNLPITFGQGTRLEIK
Turning to B5, the binding score in assay [1] came out at 381. The molecule also came in with a Kd in assay [2] of 103 nM.

B6: D002 (antibody, V domains shown)
VH: EVQLVQSGAEVKKPGESLKISCKASGYNFTTSWIGWVRQMPGKGLEWMGIIYPGDFDTTYSPSFQGQVTISADKSISTAYLQWSSLKASDTAMYYCARVGPTAGTDGYNYLDWYFDLWGRGTLVTVSS
VL: SYELTQPPSVSVSPGQTARITCSGDALPKQFSYWYQQKPGQAPVLVIYKDNERPSGIPERFSGSSSGTTVTLTISGVQAEDEADYYCQSADSISWVFGGGTKLTVL
The molecule B6 yielded a binding score in assay [1] of 3640. The same molecule gave a Kd in assay [2] of 465 nM.

B7: D066 (antibody, V domains shown)
VH: QVQLVQSGAEVKKPGASVKVSCKASEYTFTNYYMHWVRQAPGQGLEWMGIINPSAGSTSYAQKFQGRVRMTSDTSTNTVYMELSSLRSEDTAVYYCARGVLVPAAEYYFDYWGQGTLVTVSS
VL: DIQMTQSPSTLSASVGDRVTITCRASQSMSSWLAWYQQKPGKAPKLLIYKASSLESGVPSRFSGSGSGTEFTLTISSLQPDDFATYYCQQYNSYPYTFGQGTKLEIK
In turn, B7 had a binding score in assay [1] of 11.9. The molecule also registered a Kd in assay [2] of 7.6 nM.

B8: D068 (antibody, V domains shown)
VH: EVQLVESGGGLVKPGGSLRLSCAASGFTFSSYSMNWVRQAPGKGLEWVSSISSSSSYIYYADSVKGRFTISRDNAKNSLYLQMNSLRAEDTAVYYCARVDSSGWYTGDAFDIWGQGTMVTVSS
VL: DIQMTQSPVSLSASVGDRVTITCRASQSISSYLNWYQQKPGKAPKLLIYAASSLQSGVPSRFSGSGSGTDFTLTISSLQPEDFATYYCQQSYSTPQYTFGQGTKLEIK
In turn, B8 yielded a binding score in assay [1] of 286. For the same molecule, in assay [2], the Kd came out at 196 nM.

B9: D146 (antibody, V domains shown)
VH: QVQLVESGGGVVQPGRSLRLSCAASGFTFSSYGMHWVRQAPGKGLEWVAVISYDGSNKYYADSVKGRFTISRDNSKNTLYLQMNSLRAEDTAVYYCAKSLGSYCSSTSCYGGSFDYWGQGTLVTVSS
VL: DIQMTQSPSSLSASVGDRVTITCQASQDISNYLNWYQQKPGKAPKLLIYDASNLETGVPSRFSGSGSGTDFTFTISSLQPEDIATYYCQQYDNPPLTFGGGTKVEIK
In turn, B9 yielded a binding score in assay [1] of 574. This molecule also showed a Kd in assay [2] of 98.1 nM.

B10: D041 (antibody, V domains shown)
VH: EVQLVQSGAEVKKPGESLKISCKGSGYSFTSYWIGWVRQMPGKGLEWMGIIYPGDSDTRYSPSFQGQVTISADKSISTAYLQWSSLKASDTAMYYCARHPTVTGWFDPWGQGTLVTVSS
VL: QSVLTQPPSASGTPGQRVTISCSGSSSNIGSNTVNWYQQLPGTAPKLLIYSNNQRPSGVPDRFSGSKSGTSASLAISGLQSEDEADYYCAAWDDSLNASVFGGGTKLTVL
In assay [1], B10 showed a binding score of 33. Moreover, in assay [2], the Kd was found to be 13.2 nM.

B11: D006 (antibody, V domains shown)
VH: EVQLVQSGAEVKKPGESLKISCKGSGYSFTSYWIGWVRQMPGKGLEWMGIIYPGDSDTRYSPSFQGQVTISADKSISTAYLQWSSLKASDTAMYYCASFGRNDAFDIWGQGTMVTVSS
VL: not shown
In the case of B11, in assay [1], the binding score was determined as 41.6. The same molecule returned a Kd in assay [2] of 8.76 nM.

B12: C2728 (antibody, V domains shown)
VH: QVQLVESGGGVVQPGRSLRLSCAASGFTFSSYGMHWVRQAPGKGLEWVAVIWYDGSNKYYADSVKGRFTISRDNSKNTLYLQMNSLRAEDTAVYYCARERPHPSITMIVPNNYGMDVWGQGTTVTVSS
VL: not shown
In assay [1], B12 gave a binding score of 132. Besides, in assay [2], the affinity, expressed as Kd, was 536 nM.

B13: C2743 (antibody, V domains shown)
VH: QVQLVQSGAEVKKPGASVKVSCKASGYTFTSYGISWVRQAPGQGLEWMGWISAYNGNTNYAQKLQGRVTMTTDTSTSTAYMELRSLRSDDTAVYYCARDFGELATPLDYWGQGTLVTVSS
VL: EIVLTQSPATLSLSPGERATLSCRASQSVSSYLAWYQQKPGQAPRLLIYDASNRATGIPARFSGSGSGTDFTLTISSLEPEDFAVYYCQQRSNSLTFGGGTKVEIK
In the case of B13, the binding score in assay [1] was 14.3. The same molecule showed a Kd in assay [2] of 18.5 nM.

B14: D070 (antibody, V domains shown)
VH: EVQLVESGGGLVQPGGSLRLSCAASGFTFSSYEMNWVRQAPGKGLEWVSYISSSGSTIYYADSVKGRFTISRDNAKNSLYLQMNSLRAEDTAVYYCARVPRGYYDSSGYYYVGYYFDYWGQGTLVTVSS
VL: DIQLTQSPSFLSASVGDRVTITCRASQGISSYLAWYQQKPGKAPKLLIYAASTLQSGVPSRFSGSGSGTEFTLTISSLQPEDFATYYCQQLNSYTFTFGPGTKVDIK
On to B14, for which the binding score in assay [1] was 716. In addition, binding in assay [2] was characterised by a dissociation constant (Kd) of 115 nM.

B15: D025 (antibody, V domains shown)
VH: QVQLVESGGGVVQPGRSLRLSCAASGFTFSSYGMHWVRQAPGKGLEWVAVISYDGSNKYYADSVKGRFTISRDNSKNTLYLQMNSLRAEDTAVYYCAKRGQGYCGGDCFSGYFDYWGQGTLVTVSS
VL: not shown
With B15, the binding score in assay [1] was over 10000. Besides, the Kd in assay [2] came to 172 nM.

B16: C2708 (antibody, V domains shown)
VH: EVQLVESGGVVVQPGGSLRLSCAASGFTFDDYAMHWVRQAPGKGLEWVSLISWDGGSTYYADSVKGRFTISRDNSKNSLYLQMNSLRAEDTALYYCAKDIEGGSGWSFDYWGQGTLVTVSS
VL: QSALTQPPSVSGSPGQSVTISCTGTSSDVGSYNRVSWYQQPPGTAPKLMIYEVSNRPSGVPDRFSGSKSGNTASLTISGLQAEDEADYYCSSYTSSSTVVFGGGTKLTVL
B16: in assay [1], the binding score turned out to be 7040. In addition, in assay [2], the Kd came to 597 nM.

B17: D048 (antibody, V domains shown)
VH: QLQLQESGPGLVKPSETLSLTCTVSGGSISSSSYYWGWIRQPPGKGLELIGTIYYSGSTYYNPSLKSRVTISVDTSKNQFSLKLSSVTAADTAVYYCARKGPYYYDRSGYYRPGPIDYWGQGTLVTVSS
VL: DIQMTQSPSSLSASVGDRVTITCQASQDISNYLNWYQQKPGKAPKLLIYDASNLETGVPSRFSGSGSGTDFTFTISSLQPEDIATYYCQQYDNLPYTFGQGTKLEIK
Molecule B17 displayed a binding score in assay [1] of 4.6. In addition, in assay [2], the Kd was 23.4 nM.

B18: D045 (antibody, V domains shown)
VH: EVQLVESGGGLVQPGGSLRLSCAASGFTFSSYSMNWVRQAPGKGLEWVSYISSSSSTIYYADSVKGRFTISRDNAKNSLYLQMNSLRDEDTAVYYCARHYGSGSSYYYYGMDVWGQGTTVTVSS
VL: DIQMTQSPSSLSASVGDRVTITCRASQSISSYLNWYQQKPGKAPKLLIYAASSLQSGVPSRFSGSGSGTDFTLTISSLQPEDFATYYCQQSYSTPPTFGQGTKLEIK
Molecule B18 showed a binding score in assay [1] of 15.7. The molecule further had a Kd in assay [2] of 61.1 nM.

B19: D067 (antibody, V domains shown)
VH: EVQLVESGGGLVQPGGSLRLSCAASGFIFSGYDMHWVRQAPGKGLEWVSAIGTAGDTYYPGSVKGRFILSRENAKNSLYLQMNSLRAGDTAVYYCARALYRFGELLGYDYWGQGTLVTVSS
VL: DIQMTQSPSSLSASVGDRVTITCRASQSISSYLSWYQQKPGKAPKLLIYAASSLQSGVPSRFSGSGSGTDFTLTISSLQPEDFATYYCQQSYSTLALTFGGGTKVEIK
B19 gave a binding score in assay [1] of 352. This molecule also yielded a Kd in assay [2] of 183 nM.

B20: C2709 (antibody, V domains shown)
VH: EVQLVESGGGLVQPGGSLRLSCAASGFTVSSNYMSWVRQAPGKGLEWVSVIYSGGSTYYADSVKGRFTISRDNSKNTLYLQMNSLRAEDTAVYYCARDNEHYGSGSLTLDYWGQGTLVTVSS
VL: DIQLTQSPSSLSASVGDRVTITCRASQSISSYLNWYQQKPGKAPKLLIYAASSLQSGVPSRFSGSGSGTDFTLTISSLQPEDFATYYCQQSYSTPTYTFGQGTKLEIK
B20 came in with a binding score in assay [1] of 5050. Besides, the equilibrium dissociation constant (Kd) in assay [2] stood at 115 nM.

B21: D144 (antibody, V domains shown)
VH: EVQLVESGGGLVQPGGSLRLSCAASGFTFSSYWMHWVRQAPGKGLVWVSRINSDGSSTSYADSVKGRFTISRDNAKNTLYLQMNSLRAEDTAVYYCARVPDTAMVTGINYYYYYGMDVWGQGTTVTVSS
VL: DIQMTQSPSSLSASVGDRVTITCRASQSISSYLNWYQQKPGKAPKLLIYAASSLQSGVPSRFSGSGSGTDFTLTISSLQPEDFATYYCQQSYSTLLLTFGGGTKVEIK
Regarding B21, in assay [1], the binding score stood at 24.8. Besides, the Kd in assay [2] worked out at 19.2 nM.

B22: C2704 (antibody, V domains shown)
VH: EVQLVESGGDLVQPGGSLRLSCAASGFTFSTSWMHWVRQAPGKGLVWVSHINGDGSTTIYADSVKGRFTISRDNAKNTLYLQMNTLRAEDTAVYYCARNTGTHFDYWGQGTLVTVSS
VL: QSALTQPASVSGSPGQSITISCTGTSSDVGRYNYVSWYQQHPGKAPKVMIYDVSNRPSGVSNRFSGSKSGNTASLTISGLQAEDEADYYCSSYTSSSPWVFGGGTKLTVL
With B22, the binding score in assay [1] was found to be 410. Moreover, the Kd in assay [2] is 205 nM.

B23: D013 (antibody, V domains shown)
VH: QVQLVQSGAEVKKPGASVRISCKTSGYIFAYYFIHWFRQAPGQGPEWMGWINPKSGGTNYAQKFQDRVTMTTDSSITTAFMALRSLRSDDTAVYYCTREGVGTISDAGFGYWGQGTPVTVSS
VL: SYVLTQPPSVSVAPGKTATITCGGNNIGSKSVHWYHQKPGQAPVMVVYNDKERPSGIPERFSGSKSGNTATLTITWVEADDEADYYCQAWDRPSGYVFGTGTKVTVL
B23: the binding score in assay [1] was found to be 1330. This molecule returned a Kd in assay [2] of 338 nM.

B24: C2723 (antibody, V domains shown)
VH: QVQLQESGPGLVKPSETLSLTCTVSGGSVSSGSYYWSWIRQPPGKGLEWIGYIYYSGSTNYNPSLKSRVTISVDTSKNQFSLKLSSVTAADTAVYYCARGALYDSSGYYPELPVYWGQGTLVTVSS
VL: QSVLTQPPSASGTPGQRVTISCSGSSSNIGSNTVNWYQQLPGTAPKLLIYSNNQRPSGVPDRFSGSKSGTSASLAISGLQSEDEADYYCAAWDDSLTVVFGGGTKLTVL
B24 registered a binding score in assay [1] of 39.7. The molecule also displayed a Kd in assay [2] of 20.9 nM.
